Laboratory results taken from patent US9701739B2, “Monoclonal antibody having immunosuppressive activity or antigen binding fragment thereof” (Josai University Corporation, priority 2010, dated 2017).

Legend:
[1] = tested on: CD3 positive T cells; experiment: Reactivity of the monoclonal antibody with T cells by flow cytometry (FACS); assay type: cell-based, C57BL/6 mouse; settings: unstimulated T cells, 10 μl of 100 μg/ml primary antibody, student t-test, FIG. 5
Experimental: Using the following approach, spleen was removed from a C57BL/6 mouse (5 weeks old, female, CHARLES RIVER LABORATORIES JAPAN, INC.) to prepare whole splenic cells.
First, in a 5 ml culture dish (BD Bioscience FALCON 351007) into which 5 ml RPMI 1640 culture medium (Sigma-Aldrich, R-8758) was transferred, spleen was disentangled well with scissors for dissection and forceps to suspend the splenic cells, which were then transferred to a 15 ml centrifuge tube (BD Bioscience FALCON 352096). Then, the 5 ml dish was washed several times with phosphate-buffered saline (PBS, Invitrogen, 20012-027), and these were also added to the foregoing cell suspension and allowed to stand, and then the supernatant was collected in another 15 ml centrifuge tube. In addition, 5 ml RPMI 1640 culture medium was also added to the residual insoluble spleen tissue again and allowed to stand, and then only the supernatant was collected, which was combined with the above-mentioned cell suspension to perform centrifugation at 1,500 rpm for 5 min. To the collected cells, added was 2 ml lysis buffer (150 mM NH4Cl/15 mM NaHCO3/0.1 mM EDTA-Na2, pH 7.3) and hemolyzed by tapping, and then 10 ml PBS was added. After washed 3 times by centrifugation at 1,500 rpm for 5 min, whole splenic cells were obtained. […]
The reactivity of the above unstimulated with 16G9 mAb or SSV mAb was analyzed by flow cytometry (FACS). […]

[2] = tested on: T cells from a Balb/c mouse (mitochondria ATP synthase knocked down or not); experiment: MLR test with T cells with or without mitochondria ATP synthase knock-down by siRNA; assay type: cell-based
Experimental: First, T cells from a Balb/c mouse having mitochondria ATP synthase knocked down were obtained using Accell siRNA kit from Thermo Fisher Scientific Inc.
Next, according to the method in Test Example 2, MLR tests were performed using Example 1 (SSV mAb) as a test substance using the T cells obtained.
In the test, Isotype IgG1 (eBioscience) was used as a control reagent. In addition, a similar test was performed using T cells from a mouse not having the ATP synthase knocked down as a control test.

[3] = tested on: histone H1, H2A, H2B, H3 or H4; experiment: ELISA determination of the affinity for histone H1 and core histone; assay type: binding; settings: 5 μg/mL antibody, FIGS. 2 and 3
Experimental: For an antigen, histone H1, which is an antigen of Reference Example 1 (16G9 mAb), and core histone H2A, H2B, H3 and H4, which are histone H1 antigen analogs, were selected.
The Affinities between histone H1 or core histone and SSVmAb were determined by ELISA.
A 96 well microplate was coated with histone H1, H2A, H2B, H3 or H4. Each histone used was dissolved in 100 mM sodium carbonate buffer (pH 9.3). The plate was washed with PBS-tween 20 (0.05%), and blocked with 3% skim milk and 1% BSA for 1 hour. To each well, 5 μg/mL SSVmAb was added, and incubated for 1 hour. Bound SSVmAb was detected using peroxidase (HRP) conjugated anti mouse IgG1Ab (SIGMA), and incubated for 1 hour. Bound SSVmAb was detected using the ABTS [2,2′-azino-bis(3-ethylbenzothiazoline-sulfonic acid)] substrate solution, and absorbance at 405 nm was measured using Multiskan Ascent (Thermo Fisher Scientific Inc., Waltham, Mass.).

[4] = tested on: Spleen lymphocytes from a naive DA rat (responsive cells) with mitomycin-C treated LEW rat spleen lymphocytes; experiment: Mixed lymphocyte reaction (MLR) test, BrdU incorporation; assay type: cell-based
Experimental: Spleen lymphocytes from a naive DA rat (responsive cells) and spleen lymphocytes from a LEW rat treated with mitomycin-C (Kyowa Hakko Kogyo Co., Ltd.) were used. The responsive cells were adjusted to 5×10^5 cells/mL with 10% FCS—RPMI culture medium, and the stimulated cells were adjusted to 8×10^6 cells/mL with 10% FCS—RPMI culture medium. After plating the responsive cell suspension and the stimulated cell suspension in an amount of 100 μL to a 96 well round-bottom plate (Nunc Brand Products) respectively, the monoclonal antibody 16G9 mAb of Reference Example 1 (0.1, 2, 4, or 6 μg/mL/well) or the monoclonal antibody SSVmAb of Example 1 (4 μg/mL/well) was added at the start of mixed culture, and cultured for 3.5 days or longer under the conditions of 37° C., 5% CO2/95% air. In addition, an immunosuppressive agent tacrolimus (FK506: Fujisawa Pharmaceutical Co., Ltd., 1 nM/well) was added as a positive control. Further, 10 μL bromo deoxyuridine (BrdU) was added 15 hours before the end of culture. Then the proliferation potential of the cells treated with the immunosuppressive agent was measured using BrdU labeling & detection kit III (Roche Diagnostics K.K.) using the amount of BrdU incorporated into cellular DNA as an indicator. The proliferation potential was used as an indicator for a level of immunosuppression.

B1: SSVmAb: IgG1 monoclonal antibody produced by Mouse-Mouse hybridoma SSV-C 93-3 (NITE BP-972), raised against … peptide-KLH conjugate (antibody, V domains shown)
VH: EIQLQQSGAELVKPGASVKISCKASGYSFTGYNMNWVKQSHGKSLEWIGNINPYYGSTSYNQKFKGKATLTVDKSSSTAYMQLNSLTSEDSAVYYCARSPYYSNYWRYFDYWGQGTTLTVSS
VL: QIVLSQSPAILSASPGEKVTMTCRASSSVSYMHWYQQKPGSSPKPWIYATSNLASGVPARFSGSGSGTSYSLTISRVEAEDAATYYCQQWSSNPWTFGGGTKLEIK
notes: IgG1 monoclonal antibody produced by Mouse-Mouse hybridoma SSV-C 93-3 (NITE BP-972), raised against … peptide-KLH conjugate
In the case of B1, the “reactivity with CD3 positive T cells” value [1] is reported as “comparative reactivity”, the “cell growth inhibition compared with Isotype IgG1” value ([2]; ATP synthase knocked down, FIG. 6B) is reported as “no significant difference” and the “cell growth inhibition compared with Isotype IgG1” value ([2]; ATP synthase not knocked down, FIG. 6A) is reported as “significantly inhibited cell growth”. For the same molecule, the “affinity for histone H2A, H2B, H3 or H4 compared with affinity for histone H1 (absorbance at 405 nm)” value [3] was “higher than the affinity for histone H1”, the “absorbance which indicates the amount of incorporated BrdU” value ([4]; 4 μg/mL/well, mean±S.E., cultured 3.5 days or longer, FIG. 4) was 0.552±0.114 and the “absorbance (incorporated BrdU) compared with reference antibody and tacrolimus” value ([4]; SSVmAb 4 μg/mL/well, 16G9 mAb 0.1, 2, 4 or 6 μg/mL/well, FK506 1 nM/well) was “lower than that of Reference Example 1 (16G9 mAb) and tacrolimus (FK506)”. For the same molecule, the “mean absorbance of Example 1 relative to that of Reference Example 1” value ([4]; same amount added (4 μg/mL/well)) was “about 41%”.
